Test results published in publication PMC3207120.

Legend:
Settings in all cases: 100 mM Tris-HCl pH 7, 15 mM MgCl2, 37 °C
purified protein [1] = substrate: O=P(O)(O)O[C@H]1O[C@H](CO)[C@H](O)[C@H](O)[C@H]1O; test: purified protein
purified protein [2] = substrate: O=C(CO)[C@@H](O)[C@H](O)COP(=O)(O)O; test: purified protein
purified protein [3] = substrate: O=[N+]([O-])c1ccc(OP(=O)(O)O)cc1; test: purified protein
steady-state kinetics = substrate: O=P(O)(O)OC[C@H]1OC(O)[C@H](O)[C@@H](O)[C@@H]1O; test: steady-state kinetics; type: biochemical, Bacillus subtilis

B1: AraL (recombinant AraL-His6, pLG11) (Bacillus subtilis subsp. subtilis str. 168; V11M) (protein)
chain: MSPAGILIDLDGTVFRGNELIEGAREAIKTLRRMGKKIVFLSNRGNISRAMCRKKLLGAGIETDVNDIVLSSSVTAAFLKKHYRFSKVWVLGEQGLVDELRLAGVQNASEPKEADWLVISLHETLTYDDLNQAFQAAAGGARIIATNKDRSFPNEDGNAIDVAGMIGAIETSAQAKTELVVGKPSWLMAEAACTAMGLSAHECMIIGDSIESDIAMGKLYGMKSALVLTGSAKQGEQRLYTPDYVLDSIKDVTKLAEEGILI
Purified protein [1]
  Km: 40.74 ± 6.03 mM
  kcat: 4.28 ± 0.4 s⁻¹
  kcat/Km: 102 M⁻¹ s⁻¹
Purified protein [2]
  Km: 29.14 ± 4.87 mM
  kcat: 2.75 ± 0.26 s⁻¹
  kcat/Km: 94.3 M⁻¹ s⁻¹
Purified protein [3]
  Km: 50.00 ± 23.32 mM
  kcat: 0.012 ± 0.0006 s⁻¹
  kcat/Km: 0.24 M⁻¹ s⁻¹
steady-state kinetics
  Km: 24.96 ± 4.08 mM
  kcat: 2.49 ± 0.26 s⁻¹
  kcat/Km: 99.8 M⁻¹ s⁻¹
